Assay results as given in paper PMC11421798, “Subfunctionalization of NRC3 altered the genetic structure of the Nicotiana NRC network” (PLOS Genetics, 2024).

Molecular target: the molecule itself
Experiment: native gel or EMSA; BN-PAGE (NativePAGE 4-16% Bis-Tris) of 1% digitonin extracts of nrc2/3/4_KO N. benthamiana leaves at 2 dpi; NRC3 variant co-expressed with Rpi-blb2, without AVRblb2

B1: N^L21ENN (NbNRC3c with L21E) (natural protein, N. benthamiana, UniProt A0A5J6DCA3 1-888, looked up)
chain: MADVAADVAVKFLVENLMQLEIDNADLIIGIKGEVENLLQDLNDFNAFLKQAAKSRRDNEVLKSLVKKIRKVVNDAEDSIDKFVIEAKRHDDKNKFAQWFHLTHVARAKGVADEIKTIRERVKEIRQNDAYGLQAITSYDNFNQGAQERKVPVVEEDDVVGFDDEAKTVIDRLIGGSDYVVPVVGMPGLGKTTLAYKIFKDSTVEYEFFNRIWVYVSQSFNRREIFLNIISKFTRNTKQYHDTPEEELANEIKELLGKGGKYLVVLDDVWTREAWDRIKIAFPNNNKRNRVLMTTRQNNVAKSCNDKPHDLKFLTENESWELLEKRVFHKEKCPFELELPGKSIAKKCRGLPLAIVVIAGALIGKGKTTREWELVADSVGEHLINRDPENCKKLVQMSYDRLPYDLKACFLYCGAFPGGSEISAQKLICLWIAEGFIQYQGPLTLEDIAEDHLNDLVNRNLVMVMKRSSSGQIKTCRVHDMLHEFCRHEAMMEENLFQEIKRGQEHSFPEKQELASYRRLCIHSSVSEFLSTKPFAEHVRSFLCFASKKFEMPLGEIPAIPRAFPLLRVLDAESIKFSRFSREFFKLFHLRYIAFSTDSIMTIPTNIGNLWNVQTLIIETQQGTLDIKADIWNMTRLRHVCINASATLPSPKRPKSSKDNLVNRCLQTLSTIAPECCTAEVFTRTPNLKKLGVRGKIDALLETSKDGSSSGLFSNIGKLDCLEKLKLVNDTRQSRKQLHLPPAYIFPQKLKKLTLIDTWFEWKDMSILGLLEYLEVLKLKENAFRGQSWEPEDSGFPRLQVLWIERTDLSSWKASSGNFPRLKCLVLIACDNLKELPAELADVENLQLMELQSTSVSAAKSARAILKKKQQKVGSGFKLSVFPPDLGL
notes: NRC3 (NbNRC3c) of Nicotiana benthamiana with L21E in the CC domain; L21E is named only in the methods of the BN-PAGE; the results call this protein NNN; also called NNN (in the BN-PAGE); source: nrc2/3/4_KO N. benthamiana leaves, agroinfiltrated, in digitonin extract
stoichiometry N: 2

B2: N^L21… (… with L21E) (natural protein, N. benthamiana, UniProt A0A5J6DCA3 1-888, looked up)
chain: MADVAADVAVKFLVENLMQLEIDNADLIIGIKGEVENLLQDLNDFNAFLKQAAKSRRDNEVLKSLVKKIRKVVNDAEDSIDKFVIEAKRHDDKNKFAQWFHLTHVARAKGVADEIKTIRERVKEIRQNDAYGLQAITSYDNFNQGAQERKVPVVEEDDVVGFDDEAKTVIDRLIGGSDYVVPVVGMPGLGKTTLAYKIFKDPKVEYEFFNRIWVYVSQSFKRREIFLNIISKFTRNTKQYHDTPEEELANEIKELLGKGGKYLVVLDDVWTREAWDRIKIAFPNNNKRNRVLMTTRQNNVAKSCNDKPHDLKFLTENESWELLEKRVFHKEKCPFELELPGKSIAKKCRGLPLAIVVIAGALIGKGKTTREWELVADSVGEHLINRDPENCKKLVQMSYDRLPYDLKACFLYCGAFPGGSEISAQKLICLWIAEGFIQYQGPLTLEDIAEDHLNDLVNRNLVMVMKRSSSGQIKTCRVHDMLHEFCRHEAMMEENLFQEIKRGQEHSFPEKQELASYRRLCIHSSVSEFLSTKPFAEHVRSFLCFASKKFEMPLGEIPAIPRAFPLLRVLDAESIKFSRFSREFFKLFHLRYIAFSTDSIMTIPTNIGNLWNVQTLIIETQQGTLDIKADIWNMTRLRHVCTNASATLPSPKRPKSSKDNLVNRCLQTLSTIAPECCTAEVFTRTPNLKKLGVRGKIDALLETSKDGSSSGLFSNIGKLDCLEKLKLVNDTRQSRKQLHLPPAYIFPQKLKKLTLIDTWFEWKDMSILGLLEYLEVLKLKENAFRGQSWEPEDSGFPRLQVLWIERTDLSSWKASSGNFPRLKHLVLIACDKLKELPAELADVENLQLMELQSTSVSAAKSARAILKKKQQKVGSGFKLSVFPPDLGL
notes: L21E is named only in the methods of the BN-PAGE; source: nrc2/3/4_KO N. benthamiana leaves, agroinfiltrated, in digitonin extract
stoichiometry N: 2
